Patent US7193055B2, “Compaction assay for assessment of respiratory disease therapy” (Genentech, Inc., priority 1992, dated 2007)
“Also recorded” adds a separate entry of the source.

What was measured:
purulent CF sputum [1] = assay: Dynamic cone and plate rheometry of sputum; set-up: species or system human; conditions: representative sputum sample, over the range of strain tested, FIG. 4
Method: Sputum rheological measurements were made at ambient temperature using the Rheometrics Fluid Rheometer (RFR-7800, Rheometrics Inc. Piscataway, N.J.) with a 0.02 radian, 25 mm radius cone and plate tool. Approximately 0.8 ml sputum was placed on the plate with 25 μL of diluent or rhDNase layered onto the top of the sputum. The cone was lowered onto the sample while the bottom plate was slowly rotated at. 5 rpm to evenly distribute the sample across the gap between the cone and plate. Drying at the sample edge was prevented by pipeting 0.1 poise silicon oil (Dow Chemical) onto the exposed edge of the cone. Rotation of the plate was stopped for five minutes to allow the sample to relax. Each preparation was tested at a deformation rate of 10 radians/sec and the percent strain was varied from 10% to 200% in 10% increments. Percent strain is defined as 100 times the distance of the shearing motion divided by the space between the cone and plate of the viscometer. The second strain value, 20% strain, was used for the comparisons between samples and treatments, being the lowest possible strain for accurate measurement. Instrument start-up frequently compromises the first data point and higher strains can damage network structures (Ferry, J Viscoelastic Properties of Polymers. 3rd ed. John Wiley and Sons, Inc. New York pg. 245-[1980]) resulting in artifacts and irreproducible data.

[2] = 1 and 4 mg/mL rhDNase solutions, aerosolized (Aitken et al., Hubbard et al.); cited from earlier work
DNA in sputum samples [3] = assay: Total DNA in pellet and supernatant fractions after compaction (DABA assay); type: biochemical, human; conditions: all six samples, FIG. 6
Method: Sputum sample DNA content was determined by a modification of the diaminobenzoic acid (DABA) assay developed by Kissane and Robins (J Biol Chem 233: 184–188 (1958]) which quantitates total DNA concentration independent of length. Previously frozen sputum aliquants were diluted tenfold with the assay diluent (25 mM HEPES, 1 mg/ml bovine serum albumin, 4 mM CaCl^2, 4 mM MgCl^2, 0.05% polysorbate 20, and 0.01% thimerasol, at pH 7.5) and incubated at 60° C. for one hour. Diluted specimens (50 μL) were pipeted into microtiter plate wells and 50 μL of a 20% 3,5-diaminobenzoic acid hydrochloride (DABA) solution was added after which the plates were tightly sealed. […] A Cytofluor (Millipore Corp.) microtiter plate flurometer (with 390 nm excitation and 530 nm emission filters) was used to read the plates. […] The coefficient of variation for the assay was determined to be <6%.
Approximately 100 μL of sputum was transferred into a tared Eppendorf microcentrifuge tube with a positive displacement pipet (Gilson Microman®, equipped with a stainless steel shaft and plastic plunger). […] The total height of the material loaded into the capillary tubes and the pellet height were measured in millimeters. The percent pellet was calculated as the height of the pellet divided by the height of the total material loaded, multiplied by 100.

[4] = catalytic amounts of rhDNase (Shak et al.); cited from earlier work
DNA in sputum samples [5] = assay: Agarose gel electrophoresis of DNA length in sputum samples; type: biochemical, human; set-up: dose or concentration left out as unconfirmed; conditions: all six sputum samples; rhDNase, 20 minutes at 25° C.
Method: The length of the DNA in sputum samples was determined qualitatively by agarose gel electrophoresis as described by Shak et al., Supra. The effect of freezing on sputum DNA length was studied by electrophoresing samples with and without one cycle of freezing at −70° C. Samples were diluted four-fold in a buffer containing 100 mM NaCl, 5 mM EDTA, 0.5% SDS, 100 μg/ml proteinase K (Sigma), 50 mM Tris, pH 8.0, and incubated for three hours at 37° C. with occasional mixing. Samples were then electrophoresed in 0.5% agarose gels and stained with ethidium bromide by standard procedures (Sambrook, et al., Molecular Cloning: A Laboratory Manual, 2nd ed. Cold Spring Harbor Laboratory Press [1989]). A 1 Kb DNA ladder having 12 major bands between 500 bp to 12 Kb (Gibco/BRL 5615SA) was used as the molecular weight standard.

[6] = rhDNase concentration in sputum after inhalation; type: in vivo, human; conditions: inhalation of 10 mg rhDNase; sputum collected one hour after inhalation
purulent CF sputum [7] = assay: Compaction assay of CF sputum treated in vitro with rhDNase; type: biochemical, human
Method: Approximately 100 μL of sputum was transferred into a tared Eppendorf microcentrifuge tube with a positive displacement pipet (Gilson Microman®, equipped with a stainless steel shaft and plastic plunger). Either rhDNase or control diluent was added as volume equaling 50% of the exact sputum sample weight. Eppendorf tubes were vigorously vortexed for 15 seconds and then incubated for 15 minutes at ambient temperature. Aliquants of the treated sputum were loaded into Kimax-51, 1.5−1.8×90 mm melting point capillary tubes (Kimble Products) using 50 μL Drummond glass capillary tube (Microcaps). The loaded tubes were centrifuged for 20 minutes at 12,000 rpm in a Biofuge A microcentrifuge (Heraeus Sepatech GmbH) equipped with a horizontal, hematocrit-type rotor head (Heraeus Sepatech) and the supernatant/pellet interface subsequently inspected for resolution. On occasion some samples required up to 20 additional minutes to resolve the supernatant-pellet interface clearly. In these cases, all samples loaded on the rotor were centrifuged for the greater duration. The total height of the material loaded into the capillary tubes and the pellet height were measured in millimeters. The percent pellet was calculated as the height of the pellet divided by the height of the total material loaded, multiplied by 100.

B1: rhDNase: recombinant human DNase I cloned and expressed at Genentech; used as 4 mg/ml solution in 1 mM CaCl2, 150 mM NaCl, pH 7.4 (protein, UniProt P24855 23-282, looked up)
Deoxyribonuclease-1: LKIAAFNIQTFGETKMSNATLVSYIVQILSRYDIALVQEVRDSHLTAVGKLLDNLNQDAPDTYHYVVSEPLGRNSYKERYLFVYRPDQVSAVDSYYYDDGCEPCGNDTFNREPAIVRFFSRFTEVREFAIVPLHAAPGDAVAEIDALYDVYLDVQEKWGLEDVMLMGDFNAGCSYVRPSQWSSIRLWTSPTFQWLIPDSADTTATPTHCAYDRIVVAGMLLRGAVVPDSALPFNFQAAYGLSDQLAQAISDHYPVEVMLK
effect on elasticity modulus (purulent CF sputum [1]): more greatly affected | effect on viscosity modulus (purulent CF sputum [1]): reduced measured values of viscosity | pulmonary function in CF patients [2]: increased pulmonary function; also recorded: improved lung function | distribution of total DNA between pellet and supernatant following compaction (DNA in sputum samples [3]): redistribution of total DNA from the pellet to the supernatant | viscosity of purulent cystic fibrosis sputum [4]: greatly reduced the viscosity | DNA size after hydrolysis (complete hydrolysis) (DNA in sputum samples [5]): less than 500 base pairs | concentrations of rhDNase in sputum [6]: 1000 to 20000 ng/mL | concentration above which rhDNase is maximally effective (fit of dose-response curve) (purulent CF sputum [7]; CF sputum sample, FIG. 7): above 1 μg/ml | concentration below which rhDNase is minimally effective (fit of dose-response curve) (purulent CF sputum [7]; CF sputum sample, FIG. 7): below 0.1 μg/ml | minimum in vitro rhDNase concentration showing activity in the compaction assay (purulent CF sputum [7]; in vitro, sputum): 1 μg rhDNase/mL sputum
